53 substances from patent publication US12565517B2, “Cyclic peptide having CTLA-4 inhibitory activity and use thereof” (GeneFrontier Corporation, priority 2019, dated 2026) can be followed below.

The first test addresses T1, CTLA-4 (Homo sapiens, UniProt P16410).
T1 sequence (P16410 36-223): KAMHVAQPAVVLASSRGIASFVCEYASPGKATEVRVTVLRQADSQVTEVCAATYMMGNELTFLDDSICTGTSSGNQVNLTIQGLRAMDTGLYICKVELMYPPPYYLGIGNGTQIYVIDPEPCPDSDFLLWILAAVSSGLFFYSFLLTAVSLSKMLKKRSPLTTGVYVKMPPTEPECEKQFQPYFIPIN
In words: ELISA binding of clones after Affinity Maturation with random library (Tables 10, 11). The conditions noted are these: CTLA-4 binding ELISA of clones after Affinity Maturation from random (NNS) library; signal/noise ratio; clones of 4th or 5th round. The protocol: After each round of Affinity Maturation, the cyclic peptide genes were recovered and subcloned into pET-Mal vector (FIG. 2) in the same manner as described above to perform base sequence analysis. For the 94 single colonies analyzed for sequence, E. coli transformants were inoculated into 100 μL of 2×YT medium containing ampicillin (final concentration 50 μg/mL), incubated at 37° C. for 3-5 hours (OD600=0.5-0.8), then added with IPTG (final concentration 0.5 mM) and incubated at 25° C. overnight. 10 μL of E. coli cultured medium was added with 90 μL of PBS and 40 μL of lysis reagent (20 μL BugBuster Protein Extraction Reagent (Novagen), 20 μL Lysozyme solution 2.5 mg/mL) to lyse E. coli cells for 1 hour at room temperature. The cell lysate was added with 40 μL of 12.5% skim milk solution (TBST) and blocked for 1 hour at room temperature. In parallel, antigen protein was immobilized overnight at 4° C. in 384-well plates at 100 ng/20 μL per well, and each well was washed twice with 100 μL/well of TBST, added with 100 μL/well of 5% skim milk solution (TBST) for blocking for 1 hour at room temperature, and washed twice with 100 μL/well of TBST to obtain antigen-immobilized plates. 20 μL/well of blocking-treated E. coli extract was added to the antigen-immobilized plates and gently stirred at room temperature using a plate mixer. After 1 hour, the plates were washed 5 times with 100 μL/well of TBST, 20 μL/well of anti-FLAG M2-HRP conjugate (1:2000 dilution, Sigma) was added and gently stirred on a plate mixer for 1 hour at room temperature. The plates were washed 5 times with 100 μL/well of TBST, and binding of cyclic peptides to the antigen was detected by 20 μL/well of chromogenic substrate (0.4 mg/mL 3,3′,5,5′-Tetramethyl-benzidine, 0.01% hydrogen peroxide). After 15 minutes of reaction at room temperature, the reaction was stopped with 20 μL/well of 2N HCl, and absorbance at 450 nm was measured using a plate reader (infinite F200: TECAN) (Table 5).
Oligo DNAs of a library were synthesized (see below), in which amino acid residues (positions 1, 4, 8, 10, +1 and +2) (corresponding to X1, […], X8, X10, X+1 and X+2) other than those essential or advantageous for CTLA-4 binding (2H, 3P, 5L, 6P, 7I, 9S, 11H, 12F) identified by alanine scanning were randomized (NNS).
Affinity Maturation was performed in the same manner as described above. The amount of biotinylated CTLA-4 immobilized on the magnetic beads was 10 pmol in the 1st round, 2 pmol in the 2nd round, and 1 pmol in the 3nd-5th rounds, respectively. The washing period was 2 hours for the 1st round, 19 hours for the 2nd round, 67 hours for the 3nd round, 140 hours for the 4th round, and 340 hours for the 5th round. Washing frequency was 1 time (2 hours) in the 1st round, 2 times (every 10 hours) in the 2nd round, 6 times (every 10 hours) in the 3rd round, 14 times (every 10 hours) in the 4th round, and 36 times (every 10 hours) in the 5th round.
Turning to “C4m#19-5th4w-NN6-23 (GGCRHPHLPIWSWHFCGR; C4m#19-5th4w-NN6-23)”, the “ELISA S/N(SA)” value is reported as 30.2. Take “C4m#19-5th4w-NN6-93 (GGCCHPWLPIVSTHFCGL; C4m#19-5th4w-NN6-93)”: the “ELISA S/N(SA)” value is 28.9.

Turning to “C4m3127-4th-NNS6-70 (GGCSHPYLPIHSRHFCLS; C4m3127-4th-NNS6-70) [Clone C4m3127-4th-NNS6-70]”, the “ELISA S/N(SA)” value is 4.6. On the same count and under the same terms, then “C4m#19-5th4w-NN6-77 (GGCRHPFLPIVSTHFCSR; C4m#19-5th4w-NN6-77)”, with 30.5; and “C4m#19-5th4w-NN6-92-1 (GGCVHPFLPIRSVHFCAL; C4m#19-5th4w-NN6-92-1)”, with 30.0. As to “C4m#19-5th4w-NN6-21 (GGCWHPWLPILSPHFCPR; C4m#19-5th4w-NN6-21)”, the “ELISA S/N(SA)” value came out at 37.5. As to “C4m#19-5th2w-NNS6-75 (GGCWHPWLPIKSPHFCAL; C4m#19-5th2w-NNS6-75)”, the “ELISA S/N(SA)” value is given as 15.3. As for “C4m3127-4th-NNS6-28 (GGCLHPFLPIFSSHFCAL; C4m3127-4th-NNS6-28) [Clone C4m3127-4th-NNS6-28]”, the “ELISA S/N(SA)” value came to 23.2.

Turning to “C4m3127-4th-NNS6-64 (GGCLHPYLPIVSSHFCPF; C4m3127-4th-NNS6-64) [Clone C4m3127-4th-NNS6-64]”, the “ELISA S/N(SA)” value is reported as 12.9. In the case of “C4m3127-4th-NNS6-2 (GGCWHPSLPIYSPHFCPL; C4m3127-4th-NNS6-2) [Clone C4m3127-4th-NNS6-2]”, the “ELISA S/N(SA)” value stood at 12.8. The same measure, in the same setting: then “C4m3127-4th-NNS6-94 (GGCRHPVLPIWSSHFCPW; C4m3127-4th-NNS6-94) [Clone C4m3127-4th-NNS6-94]”, with 5.9. As for “C4m#19-5th4w-NN6-70 (GGCMHPFLPIRSMHFCPL; C4m#19-5th4w-NN6-70)”, the “ELISA S/N(SA)” value worked out at 35.5. With “C4m#19-5th4w-NN6-53 (GGCRHPFLPIYSVHFCAC; C4m#19-5th4w-NN6-53)”, the “ELISA S/N(SA)” value worked out at 32.2. On to “C4m#19-5th4w-NN6-87 (GGCLHPVLPIRSFHFCWR; C4m#19-5th4w-NN6-87)”, for which the “ELISA S/N(SA)” value is 21.4.

Take “C4m#19-5th4w-NN6-45 (GGCRHPWLPIWSVHFCGV; C4m#19-5th4w-NN6-45)”: the “ELISA S/N(SA)” value came to 15.8. As to “C4m#19-5th2w-NNS6-21 (GGCWHPFLPIRSSHFCPS; C4m#19-5th2w-NNS6-21)”, the “ELISA S/N(SA)” value turned out to be 31.1. Consider “C4m#19-5th2w-NNS6-6 (GGCWHPYLPILSLHFCQR; C4m#19-5th2w-NNS6-6)”, for which the “ELISA S/N(SA)” value came to 10.3.

Consider “C4m3127-4th-NNS6-85 (GGCGHPFLPIFSSHFCPL; C4m3127-4th-NNS6-85) [Clone C4m3127-4th-NNS6-85]”, for which the “ELISA S/N(SA)” value worked out at 9.1.

As to “C4m#19-5th4w-NN6-40 (GGCFHPFLPIRSHHFCML; C4m#19-5th4w-NN6-40)”, the “ELISA S/N(SA)” value was determined as 4.0. As to “C4m#19-5th4w-NN6-24 (GGCWHPWLPIYSHHFCPI; C4m#19-5th4w-NN6-24)”, the “ELISA S/N(SA)” value stood at 27.6. “C4m#19-5th4w-NN6-75 (GGCWHPFLPIKSVHFCCA; C4m#19-5th4w-NN6-75)”: the “ELISA S/N(SA)” value came out at 5.6. The same measure, in the same setting: then “C4m#19-5th4w-NN6-1 (GGCRHPYLPIFSAHFCRS; C4m#19-5th4w-NN6-1)”, with 16.1; and “C4m#19-5th4w-NN6-89 (GGCMHPFLPIISQHFCAF; C4m#19-5th4w-NN6-89)”, with 8.3. As to “C4m#19-5th4w-NN6-69-1 (GGCSHPFLPILSVHFCPF; C4m#19-5th4w-NN6-69-1)”, the “ELISA S/N(SA)” value was determined as 24.9.

Turning to “C4m#19-5th2w-NNS6-90 (GGCRHPFLPIVSFHFCPF; C4m#19-5th2w-NNS6-90)”, the “ELISA S/N(SA)” value is 19.7. Same read-out and setting: then “C4m3127-4th-NNS6-72 (GGCVHPYLPISSIHFCSM; C4m3127-4th-NNS6-72) [Clone C4m3127-4th-NNS6-72]”, with 20.0; and “C4m#19-5th2w-NNS6-26 (GGCLHPFLPIVSIHFCSA; C4m#19-5th2w-NNS6-26)”, with 5.8. In the case of “C4m3127-4th-NNS6-19 (GGCMHPSLPIWSWHFCPH; C4m3127-4th-NNS6-19) [Clone C4m3127-4th-NNS6-19]”, the “ELISA S/N(SA)” value turned out to be 4.1. On to “C4m#19-5th2w-NNS6-25 (GGCKHPFLPISSHHFCPY; C4m#19-5th2w-NNS6-25)”, for which the “ELISA S/N(SA)” value is on record as 21.1.

On to “C4m3127-4th-NNS6-16 (GGCWHPYLPIFSVHFCPR; C4m3127-4th-NNS6-16) [Clone C4m3127-4th-NNS6-16]”, for which the “ELISA S/N(SA)” value was 16.5. Still for that read-out and setting: then “C4m#19-5th4w-NN6-81 (GGCFHPYLPIRSWHFCSR; C4m#19-5th4w-NN6-81)”, with 32.3; and “C4m#19-5th2w-NNS6-79 (GGCRHPFLPIVSRHFCVA; C4m#19-5th2w-NNS6-79)”, with 9.2; and “C4m#19-5th4w-NN6-30 (GGCWHPFLPIMSFHFCPY; C4m#19-5th4w-NN6-30)”, with 16.7. Consider “C4m#19-5th2w-NNS6-28 (GGCAHPYLPIRSVHFCPC; C4m#19-5th2w-NNS6-28)”, for which the “ELISA S/N(SA)” value is on record as 6.3. For “C4m#19-5th4w-NN6-6 (GGCMHPFLPIKSSHFCRK; C4m#19-5th4w-NN6-6)”, the “ELISA S/N(SA)” value stood at 16.1. As for “C4m#19-5th4w-NN6-37 (GGCLHPFLPISSWHFCGR; C4m#19-5th4w-NN6-37)”, the “ELISA S/N(SA)” value is 22.7. As to “C4m#19-5th4w-NN6-80 (GGCRHPFLPIFSWHFCAV; C4m#19-5th4w-NN6-80)”, the “ELISA S/N(SA)” value was determined as 3.8. As to “C4m#19-5th2w-NNS6-74 (GGCMHPFLPIRSWHFCSR; C4m#19-5th2w-NNS6-74)”, the “ELISA S/N(SA)” value worked out at 7.0. For “C4m#19-5th4w-NN6-14 (GGCWHPFLPIRSVHFCCR; C4m#19-5th4w-NN6-14)”, the “ELISA S/N(SA)” value came to 16.1. On the same count and under the same terms, then “C4m#19-5th4w-NN6-36 (GGCRHPYLPIWSAHFCCR; C4m#19-5th4w-NN6-36)”, with 5.7; and “C4m#19-5th4w-NN6-79 (GGCWHPVLPIRSCHFCAV; C4m#19-5th4w-NN6-79)”, with 24.9. Same read-out and setting: then “C4m#19-5th2w-NNS6-27 (GGCFHPFLPIRSCHFCAR; C4m#19-5th2w-NNS6-27)”, with 9.9; and “C4m#19-5th4w-NN6-52 (GGCLHPFLPIRSVHFCGC; C4m#19-5th4w-NN6-52)”, with 28.6. Consider “C4m#19-5th4w-NN6-39 (GGCWHPFLPIRSLHFCPR; C4m#19-5th4w-NN6-39)”, for which the “ELISA S/N(SA)” value came out at 35.6. “C4m#19-5th4w-NN6-57 (GGCMHPYLPIVSVHFCPC; C4m#19-5th4w-NN6-57)”: the “ELISA S/N(SA)” value is recorded as 27.7.

On to “C4m#19-5th4w-NN6-46-1 (GGCVHPALPIWSFHFCPS; C4m#19-5th4w-NN6-46-1)”, for which the “ELISA S/N(SA)” value turned out to be 14.2. With “C4m3127-4th-NNS6-80 (GGCGHPFLPIFSLHFCPR; C4m3127-4th-NNS6-80) [Clone C4m3127-4th-NNS6-80]”, the “ELISA S/N(SA)” value worked out at 12.8. On the same count and under the same terms, then “C4m#19-5th4w-NN6-54 (GGCLHPGLPIRSLHFCPR; C4m#19-5th4w-NN6-54)”, with 33.3; and “C4m#19-5th4w-NN6-85 (GGCWHPFLPIFSVHFCGC; C4m#19-5th4w-NN6-85)”, with 22.9.

Regarding “C4m#19-5th4w-NN6-64 (GGCWHPVLPIRSVHFCCR; C4m#19-5th4w-NN6-64)”, the “ELISA S/N(SA)” value is recorded as 13.7.

Turning to “C4m#19-5th4w-NN6-83 (GGCLHPLLPILSVHFCPS; C4m#19-5th4w-NN6-83)”, the “ELISA S/N(SA)” value is 12.0. Same read-out and setting: then “C4m#19-5th2w-NNS6-30 (GGCWHPFLPILSWHFCGR; C4m#19-5th2w-NNS6-30)”, with 9.0.

The test is the same for the next values; noted with them: S/N ratio of CTLA-4 binding in ELISA; clones from 4th or 5th round of Affinity Maturation from random (NNS) library.
As to “C4m3127-4th-NNS6-95 (GGCWHPVLPIRSGHFCSR; C4m3127-4th-NNS6-95) [Clone C4m3127-4th-NNS6-95]”, the “ELISA S/N(SA)” value is reported as 3.4.
